Measured values from doi:10.1101/2022.09.01.506260.

Assays:
[1] = biological target: T1, human 14-3-3ε (human), P62258; assay: crystal structure; conditions: remark: other sources report otherwise
T1 chain: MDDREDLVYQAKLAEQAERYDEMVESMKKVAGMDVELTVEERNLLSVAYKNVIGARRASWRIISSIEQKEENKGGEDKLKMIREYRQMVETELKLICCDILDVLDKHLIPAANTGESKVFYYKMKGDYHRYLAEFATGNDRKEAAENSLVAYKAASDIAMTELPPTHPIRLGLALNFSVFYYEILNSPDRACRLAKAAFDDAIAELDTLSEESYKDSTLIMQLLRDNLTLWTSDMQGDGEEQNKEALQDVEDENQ

[2] = biological target: full length CrkII, dimer (CrkII^FL dimer) (human), P46108; assay: SEC; conditions: remark: other sources report otherwise

Row | Binder | stoichiometry N [1] | percent of the total isolated protein that is dimer [2] | stoichiometry N [2]
1 | human 14-3-3ε, P62258-1 1-255 (natural protein) MDDREDLVYQAKLAEQAERYDEMVESMKKVAGMDVELTVEERNLLSVAYKNVIGARRASWRIISSIEQKEENKGGEDKLKMIREYRQMVETELKLICCDILDVLDKHLIPAANTGESKVFYYKMKGDYHRYLAEFATGNDRKEAAENSLVAYKAASDIAMTELPPTHPIRLGLALNFSVFYYEILNSPDRACRLAKAAFDDAIAELDTLSEESYKDSTLIMQLLRDNLTLWTSDMQGDGEEQNKEALQDVEDENQ | 2 | – | –
2 | full length CrkII, dimer (CrkII^FL dimer), P46108-1 1-304 (natural protein) MAGNFDSEERSSWYWGRLSRQEAVALLQGQRHGVFLVRDSSTSPGDYVLSVSENSRVSHYIINSSGPRPPVPPSPAQPPPGVSPSRLRIGDQEFDSLPALLEFYKIHYLDTTTLIEPVSRSRQGSGVILRQEEAEYVRALFDFNGNDEEDLPFKKGDILRIRDKPEEQWWNAEDSEGKRGMIPVPYVEKYRPASASVSALIGGNQEGSHPQPLGGPEPGPYAQPSVNTPLPNLQNGPIYARVIQKRVPNAYDKTALALEVGELVKVTKINVSGQWEGECNGKRGHFPFTHVRLLDQQNPDEDFS | – | 10% | 2
